Data on one molecule can be found in publication PMC10046281, “MoS2-Carbon Nanodots as a New Electrochemiluminescence Platform for Breast Cancer Biomarker Detection”.

The data set deals with HER2 (recombinant human HER2 standard) (human, UniProt P04626 23-652). Nature of the data set: electrochemiluminescence aptasensor; aptamer immobilized on MoS2-NS, BSA blocked; [Ru(bpy)3]2+/CD read-out; LOD 1.84 fg/mL (not a Kd); HER2 diluted in 10 mM phosphate buffer, 0.4 M NaCl, pH 7.4; BSA-blocked electrode; incubation temperature not given in the material. The settings on record: protein: recombinant.

B1: Apt-SH (HER2 aptamer) (ssDNA)
DNA: AACCGCCCAAATCCCTAAGAGTCTGCACTTGTCATTTTGTATATGTATTTGGTTTTTGGCTCTCACAGACACACTACACACGCACA
modifications: 5'-SH-(CH2)6 thiol
Consider B1, for which the binding result is “binds”.
